*1 amine or outer side, *2 acyl side, *3 side chain or, on linkers, in order; H or OH if unused. Where no end group is shown, it is not given here. Side-chain parts run from the residue outwards. The star is where a group is joined. C20 diacid = O=C(O)CCCCCCCCCCCCCCCCCCC(=O)*; C18 diacid = O=C(O)CCCCCCCCCCCCCCCCC(=O)*; γGlu = O=C(O)[C@H](CCC(=O)[*:2])N[*:1]; C14 diacid = O=C(O)CCCCCCCCCCCCC(=O)*; AEEA = NCCOCCOCC(=O)O
B1: N^ε24-[(4S)-4-carboxy-4-[[(4S)-4-carboxy-4-[[2-[2-[2-[[2-[2-[2-[[(4S)-4-carboxy-4-(17-carboxyheptadecanoylamino)butanoyl]amino]ethoxy]ethoxy]acetyl]amino]ethoxy … (peptide)
peptide: HSQGTFTSDYSRYLESRRAQDFVK([γGlu-γGlu-AEEA-AEEA-γGlu-C18 diacid])WLLST
modifications: not fully specified; printed as Nε24-[(4S)-4-carboxy-4-[[(4S)-4-carboxy-4-[[2-[2-[2-[[2-[2-[2-[[(4S)-4-carboxy-4-(17-carboxyheptadecanoylamino)butanoyl]amino]ethoxy]ethoxy]acetyl]amino]ethoxy]ethoxy]acetyl]amino]butanoyl]amino]butanoyl]-[Arg12,Glu15,Lys24,Leu27,Ser25]-Glucagon

molecular target: glucagon receptor (human, UniProt P47871 26-477); test: cell-based or functional assay
Sequence (P47871 26-477): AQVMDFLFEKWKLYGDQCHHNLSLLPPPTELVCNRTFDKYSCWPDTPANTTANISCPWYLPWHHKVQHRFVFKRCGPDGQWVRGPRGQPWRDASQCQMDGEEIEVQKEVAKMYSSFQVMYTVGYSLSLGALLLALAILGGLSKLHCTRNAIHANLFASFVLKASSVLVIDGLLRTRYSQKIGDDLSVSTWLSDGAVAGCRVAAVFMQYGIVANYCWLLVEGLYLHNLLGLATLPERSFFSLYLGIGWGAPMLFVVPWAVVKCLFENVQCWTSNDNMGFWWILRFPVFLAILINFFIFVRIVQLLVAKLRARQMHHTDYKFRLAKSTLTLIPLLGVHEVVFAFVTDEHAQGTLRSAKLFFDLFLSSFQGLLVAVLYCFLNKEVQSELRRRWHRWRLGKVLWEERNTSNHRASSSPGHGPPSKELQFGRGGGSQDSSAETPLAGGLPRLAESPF

Assay (I) Glucagon [EC50] [nM]	Binder
0.176	HSQGTFTSDYSRYLDTRRAQDFVK([γGlu-γGlu-AEEA-AEEA-γGlu-C18 diacid])WLEST
0.006	HSQGTFTSDYSRYLDLRRAQDFVK([γGlu-γGlu-AEEA-AEEA-γGlu-C14 diacid])WLLST
0.413	HSQGTFTSDYSKYLDTRRAQDFVK([γGlu-AEEA-AEEA-γGlu-C18 diacid])WLLNI
0.249	HSHGTFTSDYSKYLDSRRAKDFVK([γGlu-γGlu-AEEA-AEEA-γGlu-C18 diacid])WLLST
1.07	HSQGTFTSDYSRYLDLRRAQDFVK([γGlu-γGlu-AEEA-AEEA-γGlu-C20 diacid])WLLST
0.91	HSQGTFTSDYSRYLDLRRAQDFVK([γGlu-AEEA-AEEA-γGlu-γGlu-C18 diacid])WLLST
1.67	HSQGTFTSDYSRYLDLRRAQDFVK([γGlu-γGlu-AEEA-AEEA-γGlu-C18 diacid])WLLIT
0.153	HSQGTFTSDYSRYLDERRAQDFVK([γGlu-γGlu-AEEA-AEEA-γGlu-C18 diacid])WLLST
0.237	HSHGTFTSDYSKYLDERRAKDFVK([γGlu-γGlu-AEEA-AEEA-γGlu-C18 diacid])WLLST
0.13	HSQGTFTSDYSKYLDERRAQDFVK([γGlu-γGlu-AEEA-AEEA-γGlu-C18 diacid])WLLST
0.031	HSQGTFTSDYSRYLDTRRAQDFVK([γGlu-γGlu-AEEA-AEEA-γGlu-C18 diacid])WLLNT
1.64	HSQGTFTSDYSRYLDFRRAQDFVK([γGlu-γGlu-AEEA-AEEA-γGlu-C18 diacid])WLLST
0.078	HSQGTFTSDYSKYLDTRRAQDFVK([AEEA-γGlu-γGlu-AEEA-γGlu-C18 diacid])WLLST
0.748	B1
0.1	HSQGTFTSDYSRYLDLRRAQDFVK([AEEA-AEEA-γGlu-γGlu-γGlu-C18 diacid])WLLST
0.28	HSQGTFTSDYSKYLESRRAQDFVK([γGlu-γGlu-AEEA-γGlu-C18 diacid])WLLST
0.084	HSQGTFTSDYSKYLDIRRAQDFVK([γGlu-γGlu-AEEA-AEEA-γGlu-C18 diacid])WLLST
1.32	HSQGTFTSDYSRYLDVRRAQDFVK([γGlu-γGlu-AEEA-AEEA-γGlu-C18 diacid])WLLST
0.158	HSQGTFTSDYSRYLDARRAQDFVK([γGlu-γGlu-AEEA-AEEA-γGlu-C18 diacid])WLLST
0.307	HSQGTFTSDYSKYLDVRRAQDFVK([γGlu-γGlu-AEEA-AEEA-γGlu-C18 diacid])WLLST

From patent US20130079278A1 (Novo Nordisk, published 2013)
